Experimental data as given in the DeepSol protein solubility set.

assay: soluble on expression in E. coli; label from the status in PepcDB or PDB records

| Sequence | soluble on expression in E. coli |
| --- | --- |
| MIAARQVSKPIADAVLRYGKDHPVFRNKLLLPIGRGLVRFTSRLRMKRLGLGEPISQAPISESAALEQASDFVQQLVLFSYSVGVFAGYYFYTKMTTPESLKIEDYEEFKQQQERAIKELRLQVESLEQRLAAQQKRNFFSQLGFSKENGDESPPKPSQQAPPPEKPSEEKKPATESLKQRFQRISSLPIDAAASLILDDEEYLVVRRGSSVGIELSVNFAARGDRLRYRIPSPKLRESCAQMALKEAACHVIGAKDRSRFRYVNS | not soluble |
| MIRLAPLITADVDTTTLPGGKASDAAQDFLTLLSEALAGETTTDKAAPQLLVATDKPTTKGEPLVSDILADAQQADLLIPVDETLPVINDEQSTSTPLTTAQTMTLAAVADKNTTKDEKADDLNEDVTASLSALFAMLPGFDNTPKVTDAPSTVLPAEKPTLFTKLTSAQLTTAQPDDAPGTPAQPLTPLVAEAQSKAEVISTPSPVTADASPLITPHQTQPLPTVAAPVLSAPLGSHEWQQSLSQHISLFTRQGQQSAELRLHPQDLGEVQISLKVDDNQAQIQMISPHQHVRAALEAALPVLRTQLAESGIQLGQSNISGESFSGQQQAASQQQQSQRTANHEPLAGEDDDTLPVPVSLQGRVTGNSGVDIFA | not soluble |
| MGSDKIHHHHHHMNKETQAMMLVPQGSIEGYIHAAYDYPMLTAEEEKELAERLYYHQDLDAAKTLILSHLRFVIHVARGYSGYGLPQADLIQEGNIGLMKAVKRFNPEVGVRLVSFAVHWIKAEIHEYVLRNWRIVKVATTKAQRKLFFNLRKTKQRLGWFSDKEVDMVANELGVSKEDVLEMESRMTGSDVGFDLPVDDDESYAPALYLEDKSSNFAAELENENFETQAADQVANALAELDERSQDIIKSRWLDDEKATLHDLAAKYNISAERVRQLETNALKKLKSAVSF | not soluble |
| MLQPKRTKFRKVHKGRNRGIASGTEVSFGTYGLKAVGRCRLTARQIEAARRAMSRAVKRQGKIWIRVFPDKPITEKPLEVRMGKGKGNVEYWVALIQPGKVLYEMDGVSEEVARNAFALAAAKLPVKTTFVTKTVMLEHHHHHH | not soluble |
| MELPSMNVPFSRYCWVTLTIQDHLPIDSFRSLNLSITNDNYSGGDLKAYPADFNGILAGNWFTFSPVTYSMKLQYNYTNGAEEATRVRVYCKSPLPYWLPYCG | not soluble |
| GGNANMFMNLSREAQSETRRHHYLSSSQKEAKDFAMFADTSNPTLVRTIGVRNNLSLITDPRTGGTALMTDQSIPRKFVLGSKSSAPGENAKVFRDEMRAAGHNVSTKQAGELLREVQSDSDDDNFPDPDDFIMSRFTG | not soluble |
| MEMRGKITKINENGLGVLGNILVPFAYPGDEVEVTETRERFGKIIARDFKLMTPSPLRIPGKCSHFGKCGGCLWQGLRYREQLKLKEEIFKRITGIEAEIKGSPRIWYFRNISNFIITVNGIGFKEFGMPKTVVNIRECPIFSERTPKYLKALKDFLRESNLKPWNWREGDVHYLQVREGKFTGEVMVNIIAHVPLNYREALMEAFNFADSIYWSLKADKKDDPRGFPTLVLGNEVIREKVEGITYLIHPSVFFQTNSYALPLLLKSVEKFCEGSKVLDLYSGIGTLSLYLAKRGFEVTGVEVNGTSVEMAKRSAEINSINATFIQGKAEDAELEGYETLIVDPPRKGLKEFSRRIVKKGPNTLIYVSCNPLRFILDYRNYLSEAYKVDDALLIDMFPHTPHIEAVIKLVRR | soluble |
| MQIDKLRGRELDQLFKAILSLRDLEECYRFFDDLCTVNEIQALAQRLEVARMLREGYTYHKIETETGASTATISRVKRCLNYGNDAYAMALDRIKEEQQQEEKEANEAVTD | not soluble |
| MALQGISVMELSGLAPGPFCAMVLADFGARVVRVDRPGSRYDVSRLGRGKRSLVLDLKQPRGAAVLRRLCKRSDVLLEPFRRGVMEKLQLGPEILQRENPRLIYARLSGFGQSGSFCRLAGHDINYLALSGGRNSIFKFFSVENSEIESVGSTSRTEHVGWWSTFLYDLQDSRWGIHGCWSNRTPVLRAADQRTWTKV | not soluble |
| MSLSRAAIVDQLKEIVGADRVITDETVLKKNSIDRFRKFPDIHGIYTLPIPAAVVKLGSTEQVSRVLNFMNAHKINGVPRTGASATEGGLETVVENSVVLDGSAMNQIINIDIENMQATAQCGVPLEVLENALREKGYTTGHSPQSKPLAQMGGLVATRSIGQFSTLYGAIEDMVVGLEAVLADGTVTRIKNVPRRAAGPDIRHIIIATKVHCAISLK | soluble |
| MYTITDIAPTDAEFIALIAALDAWQETLYPAESNHLLDLSQLPPQTVIALAIRSPQGEAVGCGAIVLSEEGFGEMKRVYIDPQHRGQQLGEKLLAALEAKARQRDCHTLRLETGIHQHAAIALYTRNGYQTRCAFAPYQPDPLSVFMEKP | not soluble |
| MSLGMHLPGGIVENVRKRPGMYCGDVGEYGLHHLVYFLLDVAYEEARRGECRDVVLEVGGDGSIALFCTSRTVTAENLVRVATGAGFLGRPPGDGWGWDSMLVVSLALSSRYQVDIWADGRQWRVMGEHGHPQGEGAAVTPMEPMPVSAERGVRVHFVPDATIFEVLAFDRARLSRRCNELAALAPGLRVSFADLQRGERTLWHLPGGVAQWAHVLTEARPQLHPEPVVFDFTWDGLRVQCALQWCEDEDSTLLSFANAVRTVRHGAHVKGVTQALRGALAKLSGETRGAFPWARVAQGLTAIVAVSGPRRQMAFAGPTKELLAIPGLEEAIRKQLQPLFIELLREHPVTPALLARRTSGSEGHHHHHH | soluble |
| MEVPKNPYESTWTGYDFYYEKEPKKVPPSAGSGKMPAFQSIASISTDRESPEDPGNSGYLASGAESGPKKTTSKPATTPTPEPTTTPVEEEKVKVSPSSSTKDPSKLHKTTKTPVTITNIISTTTAPPAPSRAPENDPESGSDQSESTDNLDLLYGGGSSATATGEDKKARHSTTNNPNFCTDPPKLHDPPPPHPSAPQNLLTQLIQKKKDAPNKGSSEKSSKWSDDHASGYPEGSAPSAEPSENQYEQDGSIPSSNDYKELTDVPGTKPSSSASRGSNMAGNPTAPLTTTQHTFAPNSTETSRSSTSRGKAPGTEPKSEARYSSQNPYSDNSSTQKPEYESGYPAVSGANSRAQIPNITDYTKPSAVSIEYASSSKERSDPPFSTPLTSNSQHVLTQPRPRDYEDGPQETTRTKASGTKSPNSLQAPQQTAAHLMKNARAPGPEPSLHSTTTHHVQTPIITIAPKFSEPSPYAENIMLTPKQAPGTEPRSNSQNPQTDRLASQSGYESGGPGRPQNVSIRHRENPKGSDAISRTAITPSKIDYFAPSSPTGPIGYERQVPSFKEGPDHQYTKYSTLNSPPAPSPQESSTITHHVSTSPDFLEPSSESSVLLPKQAPGTNPSTSNSPPGYSELIGPSGPESQGYEPMGNNGPSIFEGPGTESGYSEPKALSTASQKTKPDDKPYEIPRSIEPSNSKPYPSDSSWSDHDNAPGSEPSYIPDVLDYGARANNHAGKMMNMSHATSPSTGSPSNSNNAISARDPYDHFGTITAPSDIPRANSNFEEYPDDGGYDGTNDVAIVPLRTQHGTNPSTITTTNTQVRAQISEIDRIAESFENSAREPVEYEQRITSESSKGITAVTGKDFMKKLGRKSPTCCSCCDEKQSVSRNIETQADPLHVQHAVDPSRQLVESEPVQNFVPLQNTVGGNAYIQPQPVAQQQTIYQQPFQQYQPQYPQSYQQPSCGCQPQPQNCCAPPAPCCLPTIPCCPPIPCCPQPKICCQPAPVCLPPPTCCSINFKLPTIPICGRACPSCPCRRRMHKSRRLKRHSINSNCHQCSSAGEPWRSVLHHREKRAAPGCTSGFSTMSQNSCGTCGASNLRSPRVKRMGCLPCLGRKKRDTDENSHIRVKRMGCLPCLGRKKRSTLSQSGCSQCNSMGHLFNRYKRSLFGGCSPCAPQQPCGCGRKKRSVTMKLVKRAPMQCDSTCCDFSRCPYRQKKEALVPFM | not soluble |
| NVHREWAANEKTAMESALGMSYAGKRALVCMKHVGMNVAADCFMNAAITGANGGMVIVAADDPSMHSSQNEQDSRVYGQFAMIPVMEPSNQQEAYDMTRLAFDLSERLGTPVMMRITTRLAHSRAGVVQTEPIGENELHLPEDKRQYVLLPGIAKKRYRILLDKQTDFVRESENSPYTEYVDAADKSKGIVACGIAYNYLMEAFKAQVPYPVLKVTQYPIPHKQMERLLNECGDIVVMEEGYPVVEQLLKGFPGLERIKGRLDGTLPRDGELNPDHVAKAFNIPVVEGEPIPDLVAARPPALCKGCSHRDVYDALNEVLTEYPNGRVFSDIGCYTLGALPPYEAINSCVDMGASITMAKGAADAGLFPAVSVIGDSTFTHSGITGLLDAINENSNITVIISDNESISMTGGQH | not soluble |
| MGSDKIHHHHHHMSLSYLQTSLDRIDAAARDDVIEICINPDGSCWGEFQGDHFMRKLDQALTATEVKDLGNQIASSANTTMSKDRPIVSVSITYKGRPIRAQVITPPAVLSAMSISLRFFSSLPLDGIALDFLYGKERKLEKLRLKKTRELREVVAAGVIDDALAFCVDNKLNMIVSGGTSTGKTVAARKILSHVPADERIVTIEEAAELLPTQPNAVTLIANRDAEFQTADVLLTATLRMRPDRIILGEVRGKEAMTFLEAINTGHGGSMTTLHAETPQLAVQRLAIAALKTEIPMTYADMIQYIENSIDVIIQAGRHDGRRGITEFYLPGATEIGVSQ | not soluble |
| MQWETVIGLEIHAQLATQSKIFSGSSTAFGAAPNTQASLVDLAMPGTLPVLNEEAVRMACLFGLAIDARIDRQNVFARKNYFYPDLPKGYQTSQMDHPIVGKGHLDITLEDGTTKRIGITRAHLEEDAGKSLHEDFQGMSGIDLNRAGTPLLEIVSEPDIRSAKEAVAYVKAIHALVRYLGICDGNMAEGSLRCDCNVSVRPKGQAEFGTRAEIKNVNSFRFIEKAINHEIQRQIELIEDGGKVVQETRLYDPNKDETRSMRGKEEANDYRYFPCPDLLPVVIEPEYLAKLREQLPELPVQKRERFESQYGLSAYDASVLSASREMADYFEKVQGICGDAKLAANWVMVELGSLLNKDGLEIEQSPVSAEQLGGMILRIKDNTISGKLAKMVFEAMANGEGSADQIIEAKGLKQVTDSGAIEKMLDEVLAANAEQVEQYRAADEAKRGKMFGFFVGQAMKASKGKANPQQVNELLKKKLEA | not soluble |
| MTKYIFVTGGVVSSLGKGITAASLGRLLKNRGLNVTIQKFDPYINVDPGTMSPYQHGEVFVTDDGAETDLDLGHYERFIDINLNKYSNVTTGKIYSSVLQKERRGEYLGGTVQVIPHITNEIKERVYRSGRETNADVVITEIGGTVGDIESLPFLEAIRQIKSDIGRDNVMYIHCTLIPYLKAAGEMKTKPTQHSVKELRSLGIQPNIIVVRTEMPVSQDMKDKLALFCDIDTKAVIEARDADTLYAVPLSLQEQNMDQIVCDHLKLDNPAADMTEWTALVEKVRNLSKKTKIALVGKYVELQDAYISVVEALRHAGYSFDTDVEVKWVNAEHVTAENVQELVGDTDGILVPGGFGDRGVEGKIVAIQYARENKVPFLGICLGMQLASIEFARNVLGLEGANSSEINPDTPYAIIDLLPEQKDVEDLGGTLRLGLYPCKLSEETNAYNAYNEPVVYERHRHRYEFNNQFRPDMEKAGFVFSGTSPDGRLVEIIELKDHPWFVAAQFHPELVSRPNRPQPLFHDFVKASLTNKESK | not soluble |
| MGSDKIHHHHHHMIITTALANEIVARAMAIIHHNVNVIDHHGQIIASGERHRIGEQHEVAREVIRTGKRICINNAAEAARFHNVHPGINHPIIYDDRVVMVVGISGDPAAISRYAELAVLTAELLVRQAIEMRETNWRQRLRDTLFCQYLEQGATPAGQEALHRLLELGFDFDTPRVPIVVTVQVEQHQLSDILSTLLREFSQLSGVSDVILLGSHEILILNALSEAQETLLRGIEFVLSNQISHYHIGIGVQADSAPDIREAIRFARSVIEVGSKVQPQRQIYYFREMAMLCLFRVLEDSYMVNFFINNVRQLLEHDSGEVLLDTLSSFIANNAEPGKTSLLLGIHRNTLTYRLQQIKKHIQLDPMVFTDLTQLAVSVHCYRRLNPRQSEWIDSLS | not soluble |
